Consider four molecules from patent publication US7943141B2, “Activated polyoxazolines and compositions comprising the same” (Serina Therapeutics, Inc., priority 2007, dated 2011).

For one experiment, the target named is T1, catalase (Bos taurus, UniProt P00432).
T1 sequence (P00432 2-527 limits assumed): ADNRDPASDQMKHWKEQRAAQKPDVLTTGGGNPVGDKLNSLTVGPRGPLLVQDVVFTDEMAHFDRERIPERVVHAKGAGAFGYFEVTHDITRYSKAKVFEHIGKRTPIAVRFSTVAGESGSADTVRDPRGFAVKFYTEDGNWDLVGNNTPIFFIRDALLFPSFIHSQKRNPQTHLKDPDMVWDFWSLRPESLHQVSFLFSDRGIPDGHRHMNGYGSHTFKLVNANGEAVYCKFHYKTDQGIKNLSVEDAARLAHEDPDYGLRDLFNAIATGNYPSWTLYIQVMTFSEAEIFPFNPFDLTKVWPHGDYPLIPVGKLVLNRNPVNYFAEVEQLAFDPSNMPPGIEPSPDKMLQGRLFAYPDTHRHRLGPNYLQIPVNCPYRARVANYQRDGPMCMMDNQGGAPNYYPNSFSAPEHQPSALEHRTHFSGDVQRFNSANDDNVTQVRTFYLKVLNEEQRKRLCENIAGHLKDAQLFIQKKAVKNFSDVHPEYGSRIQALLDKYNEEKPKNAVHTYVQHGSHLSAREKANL
Put plainly: Catalase enzymatic activity (method of Beers and Sizer). In kind it is biochemical. Conditions: native enzyme. From the text:
(§1) To evaluate the different influence on enzyme properties as a function of polymerization with POZ derivatives of the present disclosure and corresponding PEG polymers known in the art, three different enzymes, ribonuclease A, uricase and catalase, were modified with M-PEOZ-O—CH2—CO2—NHS (6 kDa) and PEG-O—CH2—CO2—NHS (5.5 kDa). To facilitate the comparison, each enzyme was modified under similar conditions regarding polymer to enzyme ratios, buffer, pH and reaction temperature.
The conditions of enzyme modification with the POZ and PEG polymers described above were 0.2 M, pH 8.5 in borate buffer. The amount of POZ and PEG polymer used for modification was calculated on the basis of calculated total available amino groups in each enzyme. […]
To the three enzymes solutions (2.5 mg/ml) M-POZ-O—CH2—CO2—NHS or PEG-O—CH2—CO2—NHS solid were added at room temperature at a molar ratio of polymer to protein amino groups of 2/1 and 1/1 respectively. Protein concentration of the native forms of ribonuclease, uricase and catalase was evaluated spectrophotometrically using molar extinction coefficients of 9.45×10^3, 13×10^3 and 1.67×10^5 at 280 nm, respectively. […]
The degree of protein modification was evaluated colorimetrically by TNBS assay and expressed as percentage of conjugate amino groups to the total ones present on the protein. […]

A further experiment deals with T2, ribonuclease A (Bos taurus, UniProt P61823).
T2 sequence (P61823 27-150): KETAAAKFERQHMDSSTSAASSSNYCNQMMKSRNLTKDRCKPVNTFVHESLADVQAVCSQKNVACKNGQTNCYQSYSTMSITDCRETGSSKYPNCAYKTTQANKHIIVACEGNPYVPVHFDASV
Put plainly: Ribonuclease enzymatic activity (method of Crook et al.). The experiment is classed as biochemical.
Source text: as §1
The conditions of enzyme modification with the POZ and PEG polymers described above were 0.2 M, pH 8.5 in borate buffer. The amount of POZ and PEG polymer used for modification was calculated on the basis of calculated total available amino groups in each enzyme. For example, ribonuclease A has a molecular weight of 13.7 kDa and 11 available amino groups; uricase has a molecular weight of 130 kDa and 100 available amino groups; and catalase has a molecular weight of 240 kDa and 112 available amino groups.
To the three enzymes solutions (2.5 mg/ml) M-POZ-O—CH2—CO2—NHS or PEG-O—CH2—CO2—NHS solid were added at room temperature at a molar ratio of polymer to protein amino groups of 2/1 and 1/1 respectively. Protein concentration of the native forms of ribonuclease, uricase and catalase was evaluated spectrophotometrically using molar extinction coefficients of 9.45×10^3, 13×10^3 and 1.67×10^5 at 280 nm, respectively. After 30 minutes, polymer-enzyme conjugates were purified from unreacted polymer and n-hydroxysuccinimide by gel filtration chromatography Sephadex G-75 column, with 0.1M phosphate buffer, pH 7.4 as eluent.
The degree of protein modification was evaluated colorimetrically by TNBS assay and expressed as percentage of conjugate amino groups to the total ones present on the protein. Enzymatic activity of native and modified enzymes was evaluated as follows: ribonuclease activity was assayed by the method of Crook et al. (Biochem J. 1960 February; 74:234-8); uricase activity was determined by the method of Mahler (Anal Biochem. 1970 November; 38(1):65-84); and catalase was assayed according to a method reported by Beers and Sizer (J. Biol. Chem. 1952 March; 195(1):133-40).

For Catalase, the “% activity” value on catalase is listed as 100%.

B1: RNAse: native ribonuclease A (protein, UniProt P61823 27-150, looked up)
Ribonuclease pancreatic: T2 sequence (P61823 27-150)
In the case of B1, the “% activity” value with ribonuclease A (native enzyme) came to 100%.

B2: PEG/RNAse: ribonuclease A modified with PEG-O—CH2—CO2—NHS (5.5 kDa) (conjugate, UniProt P61823 27-150, looked up)
Ribonuclease pancreatic: T2 sequence (P61823 27-150)
modifications: PEG 5.5 kDa conjugate
Turning to B2, the “% activity” value came to 15% in the experiment with ribonuclease A (NH2:polymer molar ratio 1:1) and 10% in the experiment with ribonuclease A (NH2:polymer molar ratio 2:1).

B3: POZ/RNAse: ribonuclease A modified with M-PEOZ-O—CH2—CO2—NHS (6 kDa) (conjugate, UniProt P61823 27-150, looked up)
Ribonuclease pancreatic: T2 sequence (P61823 27-150)
modifications: M-PEOZ 6 kDa conjugate
For the molecule B3, the “% activity” value with ribonuclease A (NH2:polymer molar ratio 1:1) was found to be 50%; with ribonuclease A (NH2:polymer molar ratio 2:1), 30%.
